# Experimental data: publication PMC6482197, “Inhibition of HtrA2 alleviated dextran sulfate sodium (DSS)-induced colitis by preventing necroptosis of intestinal epithelial cells” (Cell Death & Disease, 2019)
# Target: the molecule itself
# Experiment: not stated; MLKL trimer formation in T/S-treated L929 cells, with or without UCF-101 (Supplementary Fig. 5)
protein,measurement,value
"MLKL (natural protein, mouse (endogenous in L929), UniProt Q9D2Y4 1-472, looked up, MLKL, endogenous in the mouse fibroblast line L929; The trimer is seen in the execution phase of necroptosis; also called mixed lineage kinase domain like pseudokinase; MLKL trimer; source: endogenous, L929 cells treated with TNF-α plus Smac mimetic (T/S)) MDKLGQIIKLGQLIYEQCEKMKYCRKQCQRLGNRVHGLLQPLQRLQAQGKKNLPDDITAALGRFDEVLKEANQQIEKFSKKSHIWKFVSVGNDKILFHEVNEKLRDVWEELLLLLQVYHWNTVSDVSQPASWQQEDRQDAEEDGNENMKVILMQLQISVEEINKTLKQCSLKPTQEIPQDLQIKEIPKEHLGPPWTKLKTSKMSTIYRGEYHRSPVTIKVFNNPQAESVGIVRFTFNDEIKTMKKFDSPNILRIFGICIDQTVKPPEFSIVMEYCELGTLRELLDREKDLTMSVRSLLVLRAARGLYRLHHSETLHRNISSSSFLVAGGYQVKLAGFELSKTQNSISRTAKSTKAERSSSTIYVSPERLKNPFCLYDIKAEIYSFGIVLWEIATGKIPFEGCDSKKIRELVAEDKKQEPVGQDCPELLREIINECRAHEPSQRPSVDGRSLSGRERILERLSAVEESTDKKV",stoichiometry N,3
